Our source for the protein stability index values is the supplement of paper PMC10567573.

The labels stand for the following.
B1: TRIM63 (parent)
chain: QRITQEQEKKLSFIEALIQQYQEQ
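Note: lentivirally expressed fusions sorted by FACS into six bins by GFP to DsRed ratio, PSI derived from sequencing read proportions per bin multiplied by bin number.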

The variants in this series derive from B1. Nature of the series: protein stability index of a GFP-peptide fusion (GPS, HEK-293T) (PSI 1-6); higher = more stable. Particulars: c terminus: a fixed tail appended.
Regarding QRITQEQEKKLSFAEALIQQYQEQ [I14A], the protein stability index was 2.41.
The result for QRITQEQEKKLSFCEALIQQYQEQ [I14C] reads 2.02; that for QRITQEQEKKLSFFEALIQQYQEQ [I14F], 3; that for QRITQEQEKKLSFDEALIQQYQEQ [I14D], 4.69.
On to QRITQEQEKKLSFHEALIQQYQEQ [I14H], for which the protein stability index came to 3.2.
Then QRITQEQEKKLSFTEALIQQYQEQ [I14T], with 2.35.
Regarding QRITQEQEKKLSFMEALIQQYQEQ [I14M], the protein stability index was found to be 2.79.
In the case of QRITQEQEKKLSFNEALIQQYQEQ [I14N], the protein stability index turned out to be 4.7.
With QRITQEQEKKLSFIEALIQKYQEQ [Q20K], the protein stability index amounted to 5.33.
With QRITQEQEKKLSFIEALIQGYQEQ [Q20G], the protein stability index was determined as 3.11.
QRITQEQEKKLSFIEALIQVYQEQ [Q20V]: the protein stability index amounted to 1.42.
Then QRITQEQEKKLSFIEALIQNYQEQ [Q20N], with 2.93.
Then QRITQEQEKKLSFIEALIQMYQEQ [Q20M], with 2.36.
The result for QRITQEQEKKLSFIEALIQPYQEQ [Q20P] reads 3.43; that for QRITQEQEKKLSFIEALIQDYQEQ [Q20D], 2.35.
For the variant QRITQEQEKKLSFIEALIQFYQEQ [Q20F], the protein stability index turned out to be 2.6.
The result for QRITQEQEKKLSFIEALIQAYQEQ [Q20A] reads 2.11.
For the variant QRITQEQEKKLSFIEALIQSYQEQ [Q20S], the protein stability index turned out to be 2.4.
QRITQEQEKKLSFIEALIQEYQEQ [Q20E]: the protein stability index is 1.09.
The result for QRITQEQEKKLSFIEALIQWYQEQ [Q20W] reads 2.01; that for QRITQEQEKKLSFIEALIQRYQEQ [Q20R], 2.28; that for QRITQEQEKKLSFIEALIQIYQEQ [Q20I], 1.67.
As for QRITQEQEKKLSFIEALIQCYQEQ [Q20C], the protein stability index turned out to be 2.23.
Then QRITQEQEKKLSFIEALIQLYQEQ [Q20L], with 2.43; and QRITQEQEKKLSFIEALIQTYQEQ [Q20T], with 2.67.
As for QRITQEQEKKLSFIEALIQQYMEQ [Q22M], the protein stability index was found to be 1.79.
Then QRITQEQEKKLSFIEALIQQYAEQ [Q22A], with 2.36; and QRITQEQEKKLSFIEALIQQYDEQ [Q22D], with 1.77.
Then QRITQEQEKKLSFIEALIQQYKEQ [Q22K], with 2.03; and QRITQEQEKKLSFIEALIQQYGEQ [Q22G], with 2.89; and QRITQEQEKKLSFIEALIQQYYEQ [Q22Y], with 2.62.
For QRITQEQEKKLSFIEALIQQYLEQ [Q22L], the protein stability index turned out to be 2.1.
As to QRITQEQEKKLSFIEALIQQYHEQ [Q22H], the protein stability index was 2.52.
Take QRITQEQEKKLSFIEALIQQYSEQ [Q22S]: the protein stability index stood at 2.41.
The result for QRITQEQEKKLSFIEALIQQYREQ [Q22R] reads 2.42; that for QRITQEQEKKLSFIEALIQQYTEQ [Q22T], 2.22.
Consider QRITQEQEKKLSFIEALIQQYNEQ [Q22N], for which the protein stability index was found to be 2.79.
The result for QRITQEQEKKLSFIEALIQQYCEQ [Q22C] reads 2.48; that for QRITQEQEKKLSFIEALIQQYFEQ [Q22F], 2.02; that for QRITQEQEKKLSFIEALIQQYEEQ [Q22E], 1.5.
Then QRITQEQEKKLSFIEALIQQYIEQ [Q22I], with 1.35.
Then QRITQEQEKKLSFIEALIQQYPEQ [Q22P], with 3.12; and QRITQEQEKKLSFIEALNQQYQEQ [I18N], with 3.57; and QRITQEQEKKLSFIEALGQQYQEQ [I18G], with 3.67.
Regarding QRITQEQEKKLSFIEALRQQYQEQ [I18R], the protein stability index amounted to 3.4.
The result for QRITQEQEKKLSFIEALAQQYQEQ [I18A] reads 2.65; that for QRITQEQEKKLSFIEALSQQYQEQ [I18S], 2.94; that for QRITQEQEKKLSFIEALWQQYQEQ [I18W], 2.7.
As for QRITQEQEKKLSFIEALKQQYQEQ [I18K], the protein stability index is 2.42.
For QRITQEQEKKLSFIEALVQQYQEQ [I18V], the protein stability index worked out at 3.12.
For QRITQEQEKKLSFIEALTQQYQEQ [I18T], the protein stability index is 3.31.
As to QRITQEQEKKLSFIEALLQQYQEQ [I18L], the protein stability index is 2.3.
The result for QRITQEQEKKLSFIEALPQQYQEQ [I18P] reads 4.54.
Turning to QRITQEQEKKLSFIEALDQQYQEQ [I18D], the protein stability index was 2.92.
In the case of QRITQEQEKKLSFIEALQQQYQEQ [I18Q], the protein stability index worked out at 1.81.
In the case of QRITQEQEKKLSFIEALMQQYQEQ [I18M], the protein stability index was 2.22.
Then QRITQEQEKKLSFIEALEQQYQEQ [I18E], with 2.2; and QRITQEQEKKLSFIEALCQQYQEQ [I18C], with 2.67.
With QRITQEQEKKLSFIEALHQQYQEQ [I18H], the protein stability index worked out at 3.6.
In the case of QRITQEQEKKLSFIEALYQQYQEQ [I18Y], the protein stability index is 3.29.
Consider QRITQEQEKKLSFIEALFQQYQEQ [I18F], for which the protein stability index was determined as 2.74.
QRITQEQEKKLSFIEALIWQYQEQ [Q19W]: the protein stability index stood at 2.62.
As to QRITQEQEKKLSFIEALIGQYQEQ [Q19G], the protein stability index was 2.51.
Take QRITQEQEKKLSFIEALIDQYQEQ [Q19D]: the protein stability index came to 2.46.
Then QRITQEQEKKLSFIEALIEQYQEQ [Q19E], with 2.56.
Then QRITQEQEKKLSFIEALITQYQEQ [Q19T], with 2.75; and QRITQEQEKKLSFIEALINQYQEQ [Q19N], with 2.25.
On to QRITQEQEKKLSFIEALIVQYQEQ [Q19V], for which the protein stability index is 1.81.
Then QRITQEQEKKLSFIEALICQYQEQ [Q19C], with 2.6; and QRITQEQEKKLSFIEALIFQYQEQ [Q19F], with 1.91; and QRITQEQEKKLSFIEALIHQYQEQ [Q19H], with 2.04.
As to QRITQEQEKKLSFIEALIYQYQEQ [Q19Y], the protein stability index was 1.64.
The result for QRITQEQEKKLSFIEALIRQYQEQ [Q19R] reads 1.38; that for QRITQEQEKKLSFIEALIPQYQEQ [Q19P], 3.19; that for QRITQEQEKKLSFIEALIKQYQEQ [Q19K], 2.48.
Regarding QRITQEQEKKLSFIEALIIQYQEQ [Q19I], the protein stability index came to 2.73.
The result for QRITQEQEKKLSFIEALIAQYQEQ [Q19A] reads 1.8; that for QRITQEQEKKLSFIRALIQQYQEQ [E15R], 2.16; that for QRITQEQEKKLSFIIALIQQYQEQ [E15I], 1.6.
Consider QRITQEQEKKLSFIYALIQQYQEQ [E15Y], for which the protein stability index stood at 2.34.
Then QRITQEQEKKLSFIWALIQQYQEQ [E15W], with 2.5; and QRITQEQEKKLSFIFALIQQYQEQ [E15F], with 1.92; and QRITQEQEKKLSFIPALIQQYQEQ [E15P], with 3.48.
For QRITQEQEKKLSFIQALIQQYQEQ [E15Q], the protein stability index is 2.23.
With QRITQEQEKKLSFINALIQQYQEQ [E15N], the protein stability index is 2.04.
Consider QRITQEQEKKLSFIKALIQQYQEQ [E15K], for which the protein stability index amounted to 2.11.
For the variant QRITQEQEKKLSFIHALIQQYQEQ [E15H], the protein stability index stood at 2.28.
The result for QRITQEQEKKLSFITALIQQYQEQ [E15T] reads 2.32; that for QRITQEQEKKLSFISALIQQYQEQ [E15S], 2.12.
For the variant QRITQEQEKKLSFILALIQQYQEQ [E15L], the protein stability index came to 2.56.
Consider QRITQEQEKKLSFIGALIQQYQEQ [E15G], for which the protein stability index worked out at 2.44.
The result for QRITQEQEKKLSFIAALIQQYQEQ [E15A] reads 2.82; that for QRITQEQEKKLSFIDALIQQYQEQ [E15D], 2.19.
As for QRITQEQEKKLSFICALIQQYQEQ [E15C], the protein stability index turned out to be 1.44.
